Columns and labels:
Assay type in all cases: biochemical, Entelexis paramagnoliae
purified protein [1] = substrate: NC(=O)C1=CN([C@@H]2O[C@H](COP(=O)(O)OP(=O)(O)OC[C@H]3O[C@@H](n4cnc5c(N)ncnc54)[C@H](OP(=O)(O)O)[C@@H]3O)[C@@H](O)[C@H]2O)C=CC1; experiment: purified protein; conditions: D-erythrose saturating, pH 5.5, 42 °C, varied: cofactor
purified protein [2] = substrate: O=Cc1ccc([N+](=O)[O-])cc1; experiment: purified protein; conditions: NADPH in excess, pH 5.5 and 42 °C (given for D-erythrose)
[3] = substrate: NC(=O)c1ccc[n+]([C@@H]2O[C@H](COP(=O)(O)OP(=O)(O)OC[C@H]3O[C@@H](n4cnc5c(N)ncnc54)[C@H](OP(=O)(O)O)[C@@H]3O)[C@@H](O)[C@H]2O)c1; experiment: steady-state kinetics; reaction not stated; conditions: co-substrate not given; NADP+-dependent erythritol oxidation stated as not observed; varied: cofactor
Excerpt: steady-state kinetics; reaction not stated on CmER (C. magnoliae JH110 erythrose reductase; CmER2 in Table 2)

B1: CmER (C. magnoliae JH110 erythrose reductase; CmER2 in Table 2) (Entelexis paramagnoliae) (protein)
chain: MSSTYTLTRLSAPSMVLNSGSQIPAVGYGLWKQQGSEAKDSVRCAIESGYRHLDCATAYQNHKEVGQAIREAGVPRDELWITSKVWGTHFDNPEEGLDDILEELGVEYLDLLLLHLPVAFKRNPEDPKQLRGLPVDHDMKYADVWARMEKLPKSKVRNIGVSNLTVRALDELLQTAKVTPAVNQVEMHPNLPQKKLLDYCKSKGIVVQAYSPLAQGQHENPVVTDIADDLGVSPAQVVLSWGALRGTNILPKSSTPSRIRENLELIQLSDDHMRRIDALARR
notes: N-terminal GST fusion (pGEX-5X-3) in E. coli BL21 with chaperones, GST removed by Factor Xa
Question: B1 was tested. Which Km (purified protein [1]) did it give?
Answer: 16 ± 10 µM

Question: What about the kcat (purified protein [1]) of the same protein?
Answer: 48 ± 2.5 s⁻¹

Question: What about the kcat/Km (purified protein [1]) of the same protein?
Answer: 3e+06 M⁻¹ s⁻¹

Question: What about the Km (purified protein [2]) of the same protein?
Answer: 170 ± 10 µM

Question: And the kcat (purified protein [2])?
Answer: 1.4 ± 0.1 s⁻¹

Question: What about the kcat/Km (purified protein [2]) of the same protein?
Answer: 8200 M⁻¹ s⁻¹

Question: What about the Km [3] of the same protein?
Answer: 240 ± 40 µM

Question: And the kcat [3]?
Answer: 0.84 ± 0.06 s⁻¹

Question: What about the kcat/Km [3] of the same protein?
Answer: 3500 M⁻¹ s⁻¹
